The record followed here is patent US20260124314A1, “ANTl-5T4 ANTIGEN BINDING DOMAINS, ANTIBODY-DRUG CONJUGATES AND METHODS OF USE THEREOF” (Salubris Biotherapeutics, Inc., priority 2023, published 2026).

The target in assay [1] is T1, FcγRIIIb (Homo sapiens, UniProt O75015).
T1 construct: purchased Sino Biological
As to the kind of experiment: FcγR binding activity, Biacore SPR. The settings on record: antibody captured on protein A chip, receptor 0.41 nM to 100 nM. The method, then: (§1) Site mutations (L234F and S239C) in the Fc region of anti-5T4 bispecific antibody-drug conjugates were designed to mitigate potential side effects which could be caused by the antibody effector function. To confirm the mutations had the intended effect of reducing Fc receptor binding activities, the affinities between an anti-5T4 bispecific antibody with Fc mutations and an array of Fc receptors were evaluated by Biacore assay. A total of 5 Fc receptors, including FcγRI (Abcam), FcγRIIa, FcγRIIb, FcγRIIIa (158V), and FcγRIIIb (Sino Biological), were analyzed. One parental anti-5T4 Antibody (Ab1) without Fc mutations, was used as a positive control for FcR binding. SPR kinetic experiments were performed on Biacore 8K systems (GE Healthcare) with HBS-EP+ as running buffer. Antibodies were captured in the active flow cell of a protein A sensor chip (Cytiva). Capture level for each ligand was maintained between 50-100RU. For kinetic analysis, each receptor was serially diluted to 6 different concentrations, ranging from 0.41 nM to 100 nM, and the serial dilutions were injected sequentially over both reference and active flow cells in each single channel. After each binding cycle, the sensor chip was regenerated with glycine solution, pH 1.5. The resulting sensorgrams were fitted with a one-to-one binding model to extract kinetic constants using Biacore 8K Evaluation Software.
(§2) Site mutations (L234F, S239C and N434A) in the Fc region of the Bs3-HL biparatopic antibody are designed to mitigate potential side effects caused by the antibody effector function.
Background: SPR reads the build-up and loss of mass on a sensor chip optically.

For assay [2], the target named is T2, FcγRIIa (Homo sapiens, UniProt P12318).
T2 construct: purchased Sino Biological
T2 sequence (P12318 34-317): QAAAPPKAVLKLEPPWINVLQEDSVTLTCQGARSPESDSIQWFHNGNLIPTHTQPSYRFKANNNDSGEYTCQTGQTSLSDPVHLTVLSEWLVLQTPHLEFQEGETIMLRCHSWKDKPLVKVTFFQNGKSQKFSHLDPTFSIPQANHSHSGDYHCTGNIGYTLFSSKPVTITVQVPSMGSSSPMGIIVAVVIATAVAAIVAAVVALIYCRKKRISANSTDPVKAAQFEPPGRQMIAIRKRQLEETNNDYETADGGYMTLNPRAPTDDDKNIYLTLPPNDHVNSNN
As to the kind of experiment: FcγR binding activity, Biacore SPR. The settings on record: antibody captured on protein A chip, receptor 0.41 nM to 100 nM. As for the experimental part:
as §1, §2

Assay [3] concerns the target T3, FcγRIIb (Homo sapiens, UniProt P31994).
T3 construct: purchased Sino Biological
T3 sequence (P31994 43-310): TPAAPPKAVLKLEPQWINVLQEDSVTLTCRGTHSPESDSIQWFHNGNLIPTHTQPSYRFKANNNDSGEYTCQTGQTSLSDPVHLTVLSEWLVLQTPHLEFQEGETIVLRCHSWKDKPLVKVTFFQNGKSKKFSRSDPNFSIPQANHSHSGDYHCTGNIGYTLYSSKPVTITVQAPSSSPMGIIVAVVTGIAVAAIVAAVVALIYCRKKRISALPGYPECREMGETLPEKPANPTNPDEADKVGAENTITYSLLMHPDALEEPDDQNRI
As to the kind of experiment: FcγR binding activity, Biacore SPR. The settings on record: antibody captured on protein A chip, receptor 0.41 nM to 100 nM. As for the experimental part:
as §1, §2

Assay [4] has as its target T4, FcγRI (Homo sapiens, UniProt P12314).
T4 construct: purchased Abcam
The experiment in a line: FcγR binding activity, Biacore SPR. Particulars: antibody captured on protein A chip, receptor 0.41 nM to 100 nM. The method, then: (§3) A total of 5 Fc receptors, including FcγRI (Abcam), FcγRIIa, FcγRIIb, FcγRIIIa (158V), and FcγRIIIb (Sino Biological), were analyzed. One parental anti-5T4 Antibody (Ab1) without Fc mutations, was used as a positive control for FcR binding. SPR kinetic experiments were performed on Biacore 8K systems (GE Healthcare) with HBS-EP+ as running buffer. […] Capture level for each ligand was maintained between 50-100RU. […] After each binding cycle, the sensor chip was regenerated with glycine solution, pH 1.5. The resulting sensorgrams were fitted with a one-to-one binding model to extract kinetic constants using Biacore 8K Evaluation Software.

The target in assay [5] is T5, FcγRIIIa (158V) (Homo sapiens, UniProt P08637, F176V).
T5 construct: purchased Sino Biological
T5 sequence (P08637 17-208 F176V limits assumed): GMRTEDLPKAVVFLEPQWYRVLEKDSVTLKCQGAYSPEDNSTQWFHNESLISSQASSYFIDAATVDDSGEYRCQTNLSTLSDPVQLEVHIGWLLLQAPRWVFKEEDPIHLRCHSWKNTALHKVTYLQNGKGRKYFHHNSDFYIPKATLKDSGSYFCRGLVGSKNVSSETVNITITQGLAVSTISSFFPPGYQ
As to the kind of experiment: FcγR binding activity, Biacore SPR. The settings on record: antibody captured on protein A chip, receptor 0.41 nM to 100 nM. As for the experimental part:
as §3

For assay [6], the target named is T6, FcγRIIIa (158V) (UniProt P08637 17-208).
T6 construct: 158 is usually counted on the mature protein (176 on the precursor); also called Fc gamma receptor IIIa
T6 sequence (P08637 17-208 F176V): as the sequence (P08637 17-208 F176V limits assumed) above
As to the kind of experiment: SPR (Biacore 8K), antibody captured on Protein A chip, Fc receptor as analyte. As for the experimental part: (§4) A total of 5 Fc receptors, including FcγRI (Abcam), FcγRIIa, FcγRIIb, FcγRIIIa (158V), and FcγRIIIb (Sino Biological), were analyzed. […] SPR kinetic experiments were performed on Biacore 8K systems (GE Healthcare) with HBS-EP+ as running buffer. […] Capture level for each ligand was maintained between 50-100RU. […] After each binding cycle, the sensor chip was regenerated with glycine solution, pH 1.5. The resulting sensorgrams were fitted with a one-to-one binding model to extract kinetic constants using Biacore 8K Evaluation Software.

The target in assay [7] is T7, FcγRIIIb (UniProt O75015 17-200, limits assumed).
T7 construct: also called Fc gamma receptor IIIb
T7 sequence (O75015 17-200 limits assumed): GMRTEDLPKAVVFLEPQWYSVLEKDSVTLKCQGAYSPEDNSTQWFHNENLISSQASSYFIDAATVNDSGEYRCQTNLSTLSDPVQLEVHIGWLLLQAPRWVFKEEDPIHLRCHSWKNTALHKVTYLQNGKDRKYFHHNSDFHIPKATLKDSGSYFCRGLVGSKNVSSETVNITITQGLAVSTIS
The description is as above. The method, then: as §4

For assay [8], the target named is T8, recombinant human 5T4 protein (human, UniProt Q13641 32-355).
T8 construct: The ELISA protein was bought (Sino biologics and Biorbyt); also called recombinant 5T4 protein; trophoblast glycoprotein (TPBG)
T8 sequence: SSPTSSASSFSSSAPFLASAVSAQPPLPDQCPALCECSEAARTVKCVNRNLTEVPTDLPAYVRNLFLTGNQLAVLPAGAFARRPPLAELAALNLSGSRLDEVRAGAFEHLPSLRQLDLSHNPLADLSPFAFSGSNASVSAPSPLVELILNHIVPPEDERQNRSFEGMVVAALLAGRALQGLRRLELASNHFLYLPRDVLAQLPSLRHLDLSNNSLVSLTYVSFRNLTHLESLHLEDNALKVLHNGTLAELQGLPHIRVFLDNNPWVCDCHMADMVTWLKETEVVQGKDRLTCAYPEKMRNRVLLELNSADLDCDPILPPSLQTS
As to the kind of experiment: SPR (Biacore 8K), antibody captured on Protein A chip, 5T4 as analyte 0.625-10 nM, 1:1 model. The method, then:
The binding affinity of anti-5T4 bispecific antibody-drug conjugate monospecific and bispecific antibodies to 5T4 was measured by Biacore kinetic experiments using a Protein A sensor chip on Biacore 8K (Cytiva) with HBS-EP+ as running buffer. […] After each binding cycle, the sensor chip was regenerated with glycine solution, pH 1.5. Signals from reference surface and an ensemble of buffer blank injections were subtracted from binding signals to correct for nonspecific binding and injection artifacts. The corrected experimental signals were globally fitted to a 1:1 binding model to extract kinetic constants, including association rate constant (ka), dissociation rate constant (kd), and equilibrium dissociation constant (KD), using the Biacore 8K Evaluation Software.

Assay [9] addresses T9, FcγRI (Abcam) (UniProt P12314 16-288, limits assumed).
T9 construct: also called Fc gamma receptor I
The experiment in a line: SPR (Biacore 8K), antibody captured on Protein A chip, Fc receptor as analyte, 1:1 model. As for the experimental part: as §4

Assay [10] deals with T10, FcγRIIa (UniProt P12318 34-218, limits assumed).
T10 construct: also called Fc gamma receptor IIa
T10 sequence (looked up): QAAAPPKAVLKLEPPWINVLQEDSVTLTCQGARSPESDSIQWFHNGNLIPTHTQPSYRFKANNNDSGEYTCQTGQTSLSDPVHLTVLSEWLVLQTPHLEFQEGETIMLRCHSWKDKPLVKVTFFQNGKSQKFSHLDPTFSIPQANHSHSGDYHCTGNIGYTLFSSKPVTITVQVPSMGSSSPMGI
The assay is described as above. The method, then: as §4

For assay [11], the target named is T11, FcγRIIb (UniProt P31994 43-217, limits assumed).
T11 construct: also called Fc gamma receptor IIb
T11 sequence (looked up): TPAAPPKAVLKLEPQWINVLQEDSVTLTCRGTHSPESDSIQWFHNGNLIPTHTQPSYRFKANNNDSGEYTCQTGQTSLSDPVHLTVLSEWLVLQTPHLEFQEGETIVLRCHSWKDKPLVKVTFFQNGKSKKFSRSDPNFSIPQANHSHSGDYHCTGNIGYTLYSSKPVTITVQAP
The assay is described as above. The method, then:
as §4

T9 sequence (P12314 16-288 limits assumed): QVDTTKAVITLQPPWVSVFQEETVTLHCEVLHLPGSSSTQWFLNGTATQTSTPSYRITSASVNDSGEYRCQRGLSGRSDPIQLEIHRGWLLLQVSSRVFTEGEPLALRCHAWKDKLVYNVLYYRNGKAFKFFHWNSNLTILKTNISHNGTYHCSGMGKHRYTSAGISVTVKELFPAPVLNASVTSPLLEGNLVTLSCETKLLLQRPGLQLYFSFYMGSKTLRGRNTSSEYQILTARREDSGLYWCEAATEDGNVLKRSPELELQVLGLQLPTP
T4 sequence (P12314 16-374): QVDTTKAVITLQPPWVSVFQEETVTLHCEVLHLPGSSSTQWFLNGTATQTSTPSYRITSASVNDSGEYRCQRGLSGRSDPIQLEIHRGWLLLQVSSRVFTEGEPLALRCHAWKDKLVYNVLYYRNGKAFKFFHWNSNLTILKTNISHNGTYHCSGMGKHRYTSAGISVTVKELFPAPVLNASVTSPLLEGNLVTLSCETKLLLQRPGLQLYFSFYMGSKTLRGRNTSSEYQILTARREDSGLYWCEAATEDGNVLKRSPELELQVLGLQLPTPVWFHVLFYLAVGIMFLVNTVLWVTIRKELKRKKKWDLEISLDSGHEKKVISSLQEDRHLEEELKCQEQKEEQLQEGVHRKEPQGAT
T1 sequence (O75015 17-200): as the sequence (O75015 17-200 limits assumed) above

B1: Parental Ab1 without Fc mutations: parental anti-5T4 Antibody (Ab1) without Fc mutations, used as a positive control for FcR binding (antibody, V domains shown)
VH: QVQLVQSGAEVKKPGASVKVSCKASGYSFTDYYMHWVRQAPGQGLEWMGRVSPNNGATNTNQKFKDRVTMTRDTSISTAYMELRSLRSEDTAVYYCARSTMITSYYFDYWGQGTLVTVSS
VL: DIVMTQSPSFLSVSVGDRVTITCKASQSVSTDVAWYQQKPGQAPKLLIYFASDRYTGVPDRFSGSGSGTDFTFTISSLQAEDVAVYYCQQDYSSPPTFGGGTKLEIK
B1: in assay [1], the “KD for binding to FcγRIIIb” value was “No binding”. In addition, the dissociation constant Kd (in general, the equilibrium constant for the complex coming apart) in assay [2] came to 98.6 nM; in [3], 111 nM; in assay [4], 3.73 nM; in assay [5] it was 50.5 nM.

B2: Bs3-HL-FCA biparatopic anti-5T4 antibody (Bs3 with the scFv in the VH-VL orientation and the L234F, S239C and N434A mutations) (bispecific antibody, human IgG1, kappa)
heavy: QVQLVQSGAEVKKPGASVKVSCKASGYSFTDYYMHWVRQAPGQGLEWMGRVSPNNGATNTNQKFKDRVTMTRDTSISTAYMELRSLRSEDTAVYYCARSTMITSYYFDYWGQGTLVTVSSASTKGPSVFPLAPSSKSTSGGTAALGCLVKDYFPEPVTVSWNSGALTSGVHTFPAVLQSSGLYSLSSVVTVPSSSLGTQTYICNVNHKPSNTKVDKRVEPKSCDKTHTCPPCPAPEFLGGPCVFLFPPKPKDTLMISRTPEVTCVVVDVSHEDPEVKFNWYVDGVEVHNAKTKPREEQYNSTYRVVSVLTVLHQDWLNGKEYKCKVSNKALPAPIEKTISKAKGQPREPQVYTLPPSREEMTKNQVSLTCLVKGFYPSDIAVEWESNGQPENNYKTTPPVLDSDGSFFLYSKLTVDKSRWQQGNVFSCSVMHEALHAHYTQKSLSLSPGKGGGGSGGGGSGGGGSEVQLLESGGGLVQPGGSLRLSCAASGFDFSRYWMTWVRQAPGKCLEWVSEINPDSRTINYTPSLKDRFTISRDNAKNTLYLQMNSLRAEDTAVYYCARPDHDYNPYYFNYWGQGTTVTVSSGGGGSGGGGSGGGGSGGGGSDIVLTQSPASLAVSLGQRATISCRPSQSVSTSSNSYIHWYQQKPGQPPKLLIKYASNLESGVPARFSGSGSGTDFTLTISPVEAEDTATYYCQQSWEIPLTFGCGTKLEIK
light: DIVMTQSPSFLSVSVGDRVTITCKASQSVSTDVAWYQQKPGQAPKLLIYFASDRYTGVPDRFSGSGSGTDFTFTISSLQAEDVAVYYCQQDYSSPPTFGGGTKLEIKRTVAAPSVFIFPPSDEQLKSGTASVVCLLNNFYPREAKVQWKVDNALQSGNSQESVTEQDSKDSTYSLSSTLTLSKADYEKHKVYACEVTHQGLSSPVTKSFNRGEC
notes: also called 5T4-Bs3- FCA; BsAb with the FCA mutations
Take B2: the binding result in assay [6] and in assay [7] was “no binding (tested: receptor 0.41 nM to 100 nM)” throughout. The dissociation constant Kd is 0.775 nM in assay [8], 39.6 nM in assay [9], 91.5 nM in assay [10] and 116 nM in [11].
